± gives the uncertainty stated by the source.

The nature of the series: amyloid nucleation score (Sup35N fusion, yeast selection) (log enrichment); library NNK1; higher = more nucleation; inactive = no reads after selection. In short, it runs like this:
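The nucleation score is the log enrichment of output over input reads, calculated with DiMSum and centred on the mode score of non-aggregating sequences. Sequences with under 100 input reads were excluded. Reads came from Illumina sequencing of plasmid inserts from psi-negative yeast expressing Sup35N fused to peptides of 20 random codons, induced 24 hours with 100 μM copper sulfate and grown 7 days at 30°C without adenine and uracil.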
In turn, MVKRCVDNFRKWKSVDSSYR displayed an amyloid nucleation score of 0.671 ± 0.37. To VTQFSVWLVLRICGLTLRWY belongs 0.31 ± 1; to NMEWYRTFCSQCYIGRRGTS, 0.476 ± 0.9. To CMKYMLCARKYFKSYSWLLS belongs 1.04 ± 0.73; to GVCVKGKRWDAEGVLRNAYT, 1.41 ± 0.46. TCFTLGRPNSLFCDCIGHKS yielded an amyloid nucleation score of -0.011 ± 0.29. In turn, TCHSKSVCCLYGLCGGPEWG came in with an amyloid nucleation score of 6.453 ± 0.055. To YKLLYGYWLDWREGRNHKPK belongs 0.479 ± 0.32; to SSSVYVVVEPDMNGLMGMRK, 0.08 ± 0.61; to SNLLTRSPLMLSSIIMVMNC, -0.133 ± 0.75. For STKWLFGKNGVSLYLLSRRR, the amyloid nucleation score amounted to 2.58 ± 0.13.

The substance FYYVRLDARMVDSSSFV had an amyloid nucleation score of -0.542 ± 0.28. The substance TSRIFRCCCNCWSHA came in with an amyloid nucleation score of 1.31 ± 0.11.

TLPTKTTPSAFAVNEVTFLT had an amyloid nucleation score of -0.573 ± 0.4. As to MDPTEEE, the amyloid nucleation score was -0.573 ± 1.4. For LYFKSSRCR the value was 1.12 ± 0.52; for LQIYCAPGFV, 0.38 ± 1.2; for CGEIENRMVTEAVTALLLYD, 0.034 ± 0.41. As to PYGIGIFNYLWATGMNLSQA, the amyloid nucleation score is -0.071 ± 0.43.

With NYSYVTWNLFGQSPICSLWY, the amyloid nucleation score came to 6.103 ± 0.049. For LVHTDTNLVF the value was “inactive”; for SVSLFMITVFNVTC, 2.4 ± 0.14. On to PVRQSL, for which the amyloid nucleation score was found to be 0.343 ± 0.33. In turn, GLMGLFVKWYNVVQIFQSRM gave an amyloid nucleation score of -0.437 ± 0.61. In the case of SKDCNKWVRPRHGLYRFGGF, the amyloid nucleation score worked out at 0.071 ± 0.34. As to LYPSISGFFCCKWGSVVNGL, the amyloid nucleation score entry was “inactive”.

In the case of LSYCVIG, the amyloid nucleation score entry is “inactive”. In the case of VLFLHSS, the amyloid nucleation score was determined as 0.355 ± 0.49.

The substance VSTYRRDIMLHVITIENKLT gave an amyloid nucleation score of 2.29 ± 0.6.

MVGSKSGKDGAQASSRKLAF: the amyloid nucleation score came out at 0.708 ± 0.34. For VNMSVIWGRVFASEKVYRAK the value was 0.871 ± 0.56; for KKGVIGKG, -2.31 ± 1.6; for SEIPKSYPNFDYVSFINNSL, -0.24 ± 0.39.

Substance SFNVAMCRCDVYL displayed an amyloid nucleation score of 7.027 ± 0.047. For VTGWFYAGILYAFLYSQVLF, the amyloid nucleation score was 0.171 ± 1.2.

On to FFRVLFFTFLAWYVELKWQL, for which the amyloid nucleation score was -0.201 ± 0.78.

The substance RRLHMLVNHLKCAGATRGGR showed an amyloid nucleation score of -0.172 ± 0.34. Substance HKCWVDGIVY came in with an amyloid nucleation score of 0.577 ± 0.48. HKTSKMLCLSI showed an amyloid nucleation score of 0.241 ± 0.9. For GRVFAVSYFVRAGLVNEG the value was 0.082 ± 0.7. Substance ITGFAPVRVVCEYLS had an amyloid nucleation score of 0.182 ± 0.6.

Regarding WWVNL, the amyloid nucleation score worked out at 0.247 ± 0.3. For KIGLPGLCVW the value was 0.063 ± 0.54; for KGDNVEIMQTFDKSCLDIGA, “inactive”. The substance LSTYTMLF yielded an amyloid nucleation score of -0.168 ± 0.28. Turning to SMYFSHVSPFVWRSYCFLVC, the amyloid nucleation score entry is “inactive”.

Regarding SIFIAGWGCISYKRRVACFR, the amyloid nucleation score entry was “inactive”. LPFSLFSLD: the amyloid nucleation score was found to be 0.308 ± 0.42. For QMYYFRCGQFTQGGNTQWLW, the amyloid nucleation score came out at 0.632 ± 0.39.

For MNVFRGSVPAFPLPPYMRLA, the amyloid nucleation score was -0.242 ± 0.34. For RSVSLC the value was 0.907 ± 0.61. For NPWIT the value was 1.65 ± 0.35; for DYEPLASDAREEDFCNARRG, -0.677 ± 0.64. Turning to RDYYIVNSGLKLEYHLLI, the amyloid nucleation score is 3.77 ± 0.051. To SSIRNVTAICINGSRLINVL belongs 1.1 ± 0.54; to SLNPALFTVSYPLVMLENDT, 0.19 ± 0.29.

SRRFYLTPELPVTHVCCVGK displayed an amyloid nucleation score of 1.03 ± 0.62. For NRYRCYDCTLVGRVSYS the value was -0.436 ± 0.29; for KPKCNHRDRTSLEILRNNAL, 1.35 ± 0.43; for APSLVVRPSFGGLRTRVVYP, 0.44 ± 0.58. GCFASTSNTRC: the amyloid nucleation score is 1.05 ± 0.66. For TFLIFDLN, the amyloid nucleation score is 4.56 ± 0.062. For THNWNNSYSWSPPDALVSCK the value was 0.263 ± 0.51; for LNRVLMTIWCTPMSICTYDC, 3.89 ± 0.12; for MPVALKIAILTFWEKSNLCE, 1.27 ± 0.88. On to KSTSYNLIDIMAGSSLTNNR, for which the amyloid nucleation score is 0.274 ± 0.28.

For the substance AKDFIGQSC, the amyloid nucleation score came to 0.688 ± 0.45. For the substance LTMPYAI, the amyloid nucleation score entry was “inactive”. On to NLTRITF, for which the amyloid nucleation score was -0.762 ± 1.1. With VLRHS, the amyloid nucleation score was -0.779 ± 1. In the case of LIDRCWMAGRAFNLLMF, the amyloid nucleation score is -0.331 ± 0.76.

With MMYDGIVSR, the amyloid nucleation score is -0.184 ± 0.31. For TLYCTFSTWYPLYKLQHDRY the value was 4.55 ± 0.14; for SHTRQ, -0.223 ± 0.91. To VSLRTISWNMLLNDCWHVKM belongs 0.176 ± 0.72; to RLVLNCRYNYCSREFVFYAV, 0.292 ± 0.35. DCGRWNRKRPNSVLGVYL registered an amyloid nucleation score of 1.48 ± 0.88. Substance NRYGWHSPDVPLAHIS had an amyloid nucleation score of -0.029 ± 0.87.

Consider SADLCLMWSGTNC, for which the amyloid nucleation score entry is “inactive”. For IAMSSYPLD the value was 1.02 ± 1.1; for AEYCSNVGMSLYFLWSKPMQ, 1.89 ± 0.18. For IIFGCCVF the value was 7.982 ± 0.062; for VFLRL, 4.48 ± 0.1. For IVRDFMVLINR the value was -0.911 ± 1.3; for SDRSLVGRNAGM, -0.468 ± 0.65; for LVELLVWMAGWRCGDFLACR, 0.867 ± 0.58. In the case of EVGHFRSDVDLFWV, the amyloid nucleation score was -1.04 ± 0.44. For FHHMVLE the value was -0.783 ± 0.54; for FSSRWSI, -0.138 ± 0.6.

In turn, FFVVMVIDNKHPQQENSRIR showed an amyloid nucleation score of 1.74 ± 0.34. For LYSDGLFANRTWLYF, the amyloid nucleation score came to 1.01 ± 0.61. For RADGLHASETVGSLL the value was -1.13 ± 2.7; for DDFAMLE, “inactive”; for SHEFLSSVYQSVLIVSNF, -0.508 ± 0.58.

Regarding DGMVALYVGYATSLVTWAK, the amyloid nucleation score is 0.65 ± 0.56. For CTVDMEGFGFSRIVVDRGRS the value was -0.118 ± 0.6; for RCSFIS, -0.682 ± 0.75; for YCCDDDGKFAWNECWDDTAR, 0.102 ± 0.21. As to CFQVYICVVDSDYRNFLWDA, the amyloid nucleation score was 3.73 ± 0.077. To HHLVISCDSLENASYRLCIQ belongs 1.45 ± 0.43; to LQPNLMEGAMSSGGTEEVTV, -0.565 ± 1.4; to VSRLEVPRFLCTLQSTLLSS, -0.123 ± 0.86.

Take FFILW: the amyloid nucleation score is -0.75 ± 1.2. Turning to SLNSTFFCIEISVDDIEVLQ, the amyloid nucleation score is -0.609 ± 0.52. CSYRWVELLCSC: the amyloid nucleation score was 3.93 ± 0.11.

KWNLGYIYMYRATIK showed an amyloid nucleation score of 1.44 ± 0.84.

Values taken from the supplement of paper PMC12042874.
